Patent US20210246210A1 (JIANGSU ALPHAMAB BIOPHARMACEUTICALS, published 2021)

Tests used:
human PD-L1 (WT) = human PD-L1 (WT) (human, UniProt Q9NZQ7 19-238, limits assumed); experiment: method not stated; PD-L1 ISVD-9 on human PD-L1 WT
PD-L1-muFc = molecular target: T1, PD-L1-muFc (human); experiment: ELISA, PD-L1-muFc coated, anti-human Fc-HRP detection (FIG. 2, Panel B)
T1 construct: also called soluble human PD-L1
Procedure: (§1) A 96-well plate was coated with PD-L1-muFc (human PD-L1 extracellular domain fused to N-terminus of mouse Fc, its amino acid sequence is as set forth in SEQ ID NO: 53). Various concentrations of the samples as well as control molecules were added. HRP labeled goat anti-human Fc antibody was used for detection. After being developed with TMB, the plate was read at a wavelength of 450/650 nm in a microplate reader.

CTLA4-muFc = molecular target: T2, CTLA4-muFc (human); experiment: ELISA, CTLA4-muFc coated, anti-human Fc-HRP detection (FIG. 2, Panel C)
T2 construct: also called soluble human CTLA4
Procedure: as §1, with “CTLA4-muFc” for “PD-L1-muFc”, “CTLA4” for “PD-L1”, “to the” for “to”, “52).” for “53).”

Chain of human PD-L1 (WT) (Q9NZQ7 19-238 limits assumed): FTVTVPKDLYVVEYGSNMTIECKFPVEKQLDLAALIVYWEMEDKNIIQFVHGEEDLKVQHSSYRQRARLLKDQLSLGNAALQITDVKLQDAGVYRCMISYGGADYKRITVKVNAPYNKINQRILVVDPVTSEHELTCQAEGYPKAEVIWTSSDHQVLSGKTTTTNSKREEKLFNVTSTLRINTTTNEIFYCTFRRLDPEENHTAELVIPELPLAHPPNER
T1 sequence (chain, as listed by the source limits assumed): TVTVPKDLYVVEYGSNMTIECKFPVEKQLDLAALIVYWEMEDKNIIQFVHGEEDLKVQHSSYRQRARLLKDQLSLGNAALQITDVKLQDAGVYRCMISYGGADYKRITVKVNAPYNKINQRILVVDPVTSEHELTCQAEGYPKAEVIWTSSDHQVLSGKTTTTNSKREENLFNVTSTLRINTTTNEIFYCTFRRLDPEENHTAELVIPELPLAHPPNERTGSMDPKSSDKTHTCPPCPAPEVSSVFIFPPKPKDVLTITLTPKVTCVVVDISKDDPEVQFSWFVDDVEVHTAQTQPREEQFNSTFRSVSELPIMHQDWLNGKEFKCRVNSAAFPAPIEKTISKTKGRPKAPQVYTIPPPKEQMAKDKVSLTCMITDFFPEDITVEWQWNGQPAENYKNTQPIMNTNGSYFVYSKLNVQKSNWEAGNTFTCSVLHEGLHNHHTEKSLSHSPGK
T2 sequence (chain, as listed by the source limits assumed): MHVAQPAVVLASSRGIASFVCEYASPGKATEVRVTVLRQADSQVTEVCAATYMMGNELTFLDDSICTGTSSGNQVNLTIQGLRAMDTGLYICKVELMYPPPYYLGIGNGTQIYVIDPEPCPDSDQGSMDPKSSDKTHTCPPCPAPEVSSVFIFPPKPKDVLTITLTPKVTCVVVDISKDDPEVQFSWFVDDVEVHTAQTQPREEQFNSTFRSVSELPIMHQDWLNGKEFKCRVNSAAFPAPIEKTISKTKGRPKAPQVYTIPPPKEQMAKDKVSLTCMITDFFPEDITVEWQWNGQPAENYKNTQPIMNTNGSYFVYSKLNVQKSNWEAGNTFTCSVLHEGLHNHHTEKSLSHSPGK

B1: PD-L1 ISVD-9 (VHH)
VHH: QVQLVESGGGLVQPGGSLRLSCAASGKMSSRRCMAWFRQAPGKERERVAKLLTTSGSTYLADSVKGRFTISRDNSKNTVYLQMNSLRAEDTAVYYCAADSFEDPTCTLVTSSGAFQYWGQGTLVTVSS
notes: also called aPDL1.9; humanized variant of PD-L1 ISVD-4
Kd (human PD-L1 (WT)): 5920 pM

B2: durvalumab (antibody, V domains shown)
VH: EVQLVESGGGLVQPGGSLRLSCAASGFTFSRYWMSWVRQAPGKGLEWVANIKQDGSEKYYVDSVKGRFTISRDNAKNSLYLQMNSLRAEDTAVYYCAREGGWFGELAFDYWGQGTLVTVSS
VL: EIVLTQSPGTLSLSPGERATLSCRASQRVSSSYLAWYQQKPGQAPRLLIYDASSRATGIPDRFSGSGSGTDFTLTISRLEPEDFAVYYCQQYGSLPWTFGQGTKVEIK
EC50 (PD-L1-muFc): ~600 pM

B3: ipilimumab (antibody, V domains shown)
VH: QVQLVESGGGVVQPGRSLRLSCAASGFTFSSYTMHWVRQAPGKGLEWVTFISYDGNNKYYADSVKGRFTISRDNSKNTLYLQMNSLRAEDTAIYYCARTGWLGPFDYWGQGTLVTVSS
VL: not shown
EC50 (CTLA4-muFc): ~500 pM
